Results taken from the supplement of paper PMC9112550, “Optimization of the antimicrobial peptide Bac7 by deep mutational scanning” (BMC Biology, 2022).

System: Escherichia coli TOP10
Assay: shrunken log2 fold change of peptide-encoding DNA abundance (4.5 h post-induction vs induction); higher = less antimicrobial activity (less host growth inhibition)
Settings: time post-induction: 4.5 h; library: site-saturation at positions 5, 18, 19, 20
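Further: peptides expressed intracellularly from a pBAD plasmid library in pooled LB shake-flask culture, induced with 0.3% L-arabinose, DNA abundance read by NGS, three biological replicates, DESeq2 with apeglm shrinkage.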

Sequence: RRIRPRPPRLPRPRPRPLCKPRP
- shrunken log2 fold change: 0.041

Sequence: RRIRGRPPRLPRPRPRPGTMPRP
- shrunken log2 fold change: 0.0523

Sequence: RRIRKRPPRLPRPRPRPLHHPRP
- shrunken log2 fold change: 0.141

Sequence: RRIRIRPPRLPRPRPRPHFCPRP
- shrunken log2 fold change: -0.139

Sequence: RRIRRRPPRLPRPRPRPKLVPRP
- shrunken log2 fold change: 0.485

Sequence: RRIRNRPPRLPRPRPRPEGCPRP
- shrunken log2 fold change: -0.0205

Sequence: RRIRRRPPRLPRPRPRPHHMPRP
- shrunken log2 fold change: -0.217

Sequence: RRIRERPPRLPRPRPRPKTRPRP
- shrunken log2 fold change: -0.0349

Sequence: RRIRERPPRLPRPRPRPEPDPRP
- shrunken log2 fold change: 0.0002

Sequence: RRIRWRPPRLPRPRPRPDHMPRP
- shrunken log2 fold change: -0.128

Sequence: RRIRWRPPRLPRPRPRPYRHPRP
- shrunken log2 fold change: -0.0902

Sequence: RRIRYRPPRLPRPRPRPFAKPRP
- shrunken log2 fold change: -0.623

Sequence: RRIRKRPPRLPRPRPRPPWRPRP
- shrunken log2 fold change: 0.734

Sequence: RRIRLRPPRLPRPRPRPNGNPRP
- shrunken log2 fold change: -0.218

Sequence: RRIRIRPPRLPRPRPRPLKPPRP
- shrunken log2 fold change: -0.296

Sequence: RRIRQRPPRLPRPRPRPWGDPRP
- shrunken log2 fold change: -0.138

Sequence: RRIRERPPRLPRPRPRPTDMPRP
- shrunken log2 fold change: -0.375

Sequence: RRIRCRPPRLPRPRPRPCPSPRP
- shrunken log2 fold change: -0.0705

Sequence: RRIRWRPPRLPRPRPRPAVNPRP
- shrunken log2 fold change: 0.185

Sequence: RRIRFRPPRLPRPRPRPLLNPRP
- shrunken log2 fold change: -0.549

Sequence: RRIRHRPPRLPRPRPRPWDTPRP
- shrunken log2 fold change: -0.164

Sequence: RRIRMRPPRLPRPRPRPAIMPRP
- shrunken log2 fold change: 0.284

Sequence: RRIRSRPPRLPRPRPRPGSVPRP
- shrunken log2 fold change: -0.0129

Sequence: RRIRRRPPRLPRPRPRPVKVPRP
- shrunken log2 fold change: -0.1

Sequence: RRIRWRPPRLPRPRPRPGGYPRP
- shrunken log2 fold change: 0.215

Sequence: RRIRARPPRLPRPRPRPCNSPRP
- shrunken log2 fold change: -0.0983

Sequence: RRIRGRPPRLPRPRPRPQRFPRP
- shrunken log2 fold change: 0.139

Sequence: RRIRPRPPRLPRPRPRPVDFPRP
- shrunken log2 fold change: 0.0795

Sequence: RRIRGRPPRLPRPRPRPWQFPRP
- shrunken log2 fold change: 0.0819

Sequence: RRIRARPPRLPRPRPRPRCCPRP
- shrunken log2 fold change: 0.582

Sequence: RRIRVRPPRLPRPRPRPGFAPRP
- shrunken log2 fold change: 0.299

Sequence: RRIRPRPPRLPRPRPRPMYDPRP
- shrunken log2 fold change: -0.0348

Sequence: RRIRWRPPRLPRPRPRPCTVPRP
- shrunken log2 fold change: -0.438

Sequence: RRIRDRPPRLPRPRPRPTSPPRP
- shrunken log2 fold change: -0.267

Sequence: RRIRERPPRLPRPRPRPFFWPRP
- shrunken log2 fold change: 0.138

Sequence: RRIRYRPPRLPRPRPRPVMFPRP
- shrunken log2 fold change: -0.899

Sequence: RRIRNRPPRLPRPRPRPSRRPRP
- shrunken log2 fold change: 0.27

Sequence: RRIRSRPPRLPRPRPRPEGNPRP
- shrunken log2 fold change: -0.0126

Sequence: RRIRYRPPRLPRPRPRPNPEPRP
- shrunken log2 fold change: -0.0105

Sequence: RRIRPRPPRLPRPRPRPDPLPRP
- shrunken log2 fold change: -0.379

Sequence: RRIRQRPPRLPRPRPRPWFVPRP
- shrunken log2 fold change: -0.423

Sequence: RRIRGRPPRLPRPRPRPFNSPRP
- shrunken log2 fold change: 0.0167

Sequence: RRIRCRPPRLPRPRPRPRAMPRP
- shrunken log2 fold change: 0.914

Sequence: RRIRFRPPRLPRPRPRPKGYPRP
- shrunken log2 fold change: 0.00663

Sequence: RRIRGRPPRLPRPRPRPFEAPRP
- shrunken log2 fold change: 0.727

Sequence: RRIRARPPRLPRPRPRPECIPRP
- shrunken log2 fold change: 0.781

Sequence: RRIRYRPPRLPRPRPRPTRCPRP
- shrunken log2 fold change: 0.175

Sequence: RRIRRRPPRLPRPRPRPLPPPRP
- shrunken log2 fold change: 0.937

Sequence: RRIRCRPPRLPRPRPRPCCYPRP
- shrunken log2 fold change: -0.696

Sequence: RRIRWRPPRLPRPRPRPWSLPRP
- shrunken log2 fold change: 0.0526

Sequence: RRIRVRPPRLPRPRPRPIEIPRP
- shrunken log2 fold change: -0.00163

Sequence: RRIRWRPPRLPRPRPRPVYHPRP
- shrunken log2 fold change: 0.161

Sequence: RRIRHRPPRLPRPRPRPFDNPRP
- shrunken log2 fold change: -0.0137

Sequence: RRIRNRPPRLPRPRPRPAHSPRP
- shrunken log2 fold change: 0.111

Sequence: RRIRGRPPRLPRPRPRPKTVPRP
- shrunken log2 fold change: 0.662

Sequence: RRIRMRPPRLPRPRPRPQYGPRP
- shrunken log2 fold change: 0.015

Sequence: RRIRGRPPRLPRPRPRPLDNPRP
- shrunken log2 fold change: 0.244

Sequence: RRIRTRPPRLPRPRPRPHVHPRP
- shrunken log2 fold change: -0.511

Sequence: RRIRFRPPRLPRPRPRPTSQPRP
- shrunken log2 fold change: -0.0191

Sequence: RRIRFRPPRLPRPRPRPTKHPRP
- shrunken log2 fold change: 0.101
